# Measured values published in patent publication US20250127885A1.
# Key:
# [1] = biological target: HCMV viral Fcγ receptors (vFcγRs) on AD169-infected cells; assay: cell-based or functional assay
# [2] = biological target: HCMV viral Fcγ receptors (vFcγRs) on AD169-infected cells; assay: flow cytometry on AD169-infected fibroblasts, 67 nM antibody
# [3] = biological target: HCMV glycoprotein B (gB) on HCMV-infected MRC5 fibroblasts (human cytomegalovirus (HCMV), strain AD169) (UniProt P06473); assay: as above
# [4] = biological target: soluble HCMV gp34 ectodomain with C150S (gp34-M) (human cytomegalovirus (HCMV), strain AD169) (UniProt P16809); assay: ELISA, gB coated at 2 ug/mL, antibody 100 ug/mL, Gp34 diluted from 50 ug/mL, anti-flag-M2-HRP 1/1000 (table on the sheet)
# [5] = biological target: HCMV glycoprotein B (gB) on HCMV-infected MRC5 fibroblasts (human cytomegalovirus (HCMV), strain AD169) (UniProt P06473); assay: flow cytometry on AD169-infected fibroblasts, 67 nM antibody with soluble gp34-M (100 nM) and/or t-gp68 (2000 nM)
# [6] = biological target: human CD16A ectodomain fused to mouse CD3 zeta, on BW5147 reporter cells (human; mouse) (UniProt P08637); assay: cell-based or functional assay
# [7] = biological target: HCMV glycoprotein B (gB) on HCMV-infected MRC5 fibroblasts (human cytomegalovirus (HCMV), strain AD169) (UniProt P06473); assay: flow cytometry on AD169-infected fibroblasts, 67 nM antibody; gB and vFcγRs both capture
# [8] = biological target: soluble truncated HCMV gp68 ectodomain (t-gp68) (human cytomegalovirus (HCMV)) (UniProt F5HC14); assay: ELISA, gB coated at 2 ug/mL, antibody 100 ug/mL, Gp68 diluted from 50 ug/mL, anti-flag-M2-HRP 1/1000 (table on the sheet)
# [9] = biological target: HCMV glycoprotein B (gB) on HCMV-infected MRC5 fibroblasts (human cytomegalovirus (HCMV), strain AD169) (UniProt P06473); assay: flow cytometry, 67 nM antibody on AD169-infected fibroblasts, anti-huFc detection (vFcγRs also present)
# [10] = biological target: HCMV glycoprotein B (gB) on HCMV-infected MRC5 fibroblasts (human cytomegalovirus (HCMV), strain AD169) (UniProt P06473); assay: flow cytometry on AD169-infected MRC5 cells, anti-human Fcγ-AF647
# [11] = biological target: HCMV glycoprotein B (gB) on HCMV-infected MRC5 fibroblasts (human cytomegalovirus (HCMV), strain AD169) (UniProt P06473); assay: flow cytometry, 67 nM antibody on ΔΔΔ-infected fibroblasts (vFcγRs deleted), anti-huFc detection
# [12] = biological target: soluble truncated HCMV gp68 ectodomain (t-gp68) (human cytomegalovirus (HCMV)) (UniProt F5HC14); assay: SPR (Biacore X100), kinetic KD; t-gp68 captured by anti-strep Fab on CM5, hu4D5 Fc variant injected; 2:1 fit, first kinetic constants
# [13] = biological target: soluble truncated HCMV gp68 ectodomain (t-gp68) (human cytomegalovirus (HCMV)) (UniProt F5HC14); assay: SPR (Biacore X100), equilibrium (steady state) KD; t-gp68 captured by anti-strep Fab, hu4D5 Fc variant injected
# [14] = biological target: human CD16A F158 allotype (human) (UniProt P08637); assay: BLI (Octet RED96e), steady state; hu4D5 variant on FAB2G tips, CD16A F158 5000-156.25 nM, pH 7.4
# [15] = biological target: HCMV Merlin gpRL13 ectodomain displayed on ExpiCHO cells (human cytomegalovirus (HCMV), strain Merlin) (UniProt Q6SWC9); assay: flow cytometry, ExpiCHO cells displaying the ectodomain, hu4D5 Fc variant titrated, goat anti-Fc gamma-AF647
# [16] = biological target: soluble HCMV gp34 ectodomain with C150S (gp34-M) (human cytomegalovirus (HCMV), strain AD169) (UniProt P16809); assay: SPR (Biacore X100), kinetic KD; gp34-M captured by anti-strep Fab on CM5, hu4D5 Fc variant injected; 1:1 fit
# [17] = biological target: biotinylated FcRn (Acro Biosystems) (UniProt P55899); assay: BLI (Octet RED96e), steady state; biotinylated FcRn on SA tips, hu4D5 Fc variant 1000-31.25 nM, pH 6.0
# [18] = biological target: HCMV AD169 gpRL12 ectodomain displayed on ExpiCHO cells (human cytomegalovirus (HCMV), strain AD169) (UniProt P16810); assay: flow cytometry, ExpiCHO cells displaying the ectodomain, goat anti-Fc gamma-AF647, 4PL fit; EC50 unit inferred, x axis IgG (nM)
# [19] = biological target: HCMV gp34 ectodomain displayed on ExpiCHO cells (human cytomegalovirus (HCMV)) (UniProt P16809); assay: as above
# [20] = biological target: HCMV Merlin gpRL12 ectodomain displayed on ExpiCHO cells (human cytomegalovirus (HCMV), strain Merlin) (UniProt Q6SWD0); assay: as above
# [21] = biological target: HCMV Merlin gpRL13 ectodomain displayed on ExpiCHO cells (human cytomegalovirus (HCMV), strain Merlin) (UniProt Q6SWC9); assay: as above
# [22] = biological target: HCMV gp68 ectodomain displayed on ExpiCHO cells (human cytomegalovirus (HCMV)) (UniProt P16739); assay: as above
# [23] = biological target: HCMV viral Fcγ receptors (vFcγRs) on AD169-infected cells; assay: flow cytometry, 67 nM antibody on AD169-infected fibroblasts, anti-huFc detection
# biotinylated FcRn (Acro Biosystems), sequence (P55899 24-297 limits assumed, chain 1 of 2): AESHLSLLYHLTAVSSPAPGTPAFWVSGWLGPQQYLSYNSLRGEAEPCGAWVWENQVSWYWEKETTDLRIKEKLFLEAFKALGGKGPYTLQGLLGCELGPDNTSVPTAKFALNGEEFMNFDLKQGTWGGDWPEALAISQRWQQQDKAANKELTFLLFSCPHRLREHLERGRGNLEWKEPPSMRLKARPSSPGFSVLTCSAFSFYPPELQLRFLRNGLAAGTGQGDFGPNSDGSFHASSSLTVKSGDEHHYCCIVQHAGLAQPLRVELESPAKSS
# biotinylated FcRn (Acro Biosystems), sequence (chain, as listed by the source limits assumed, chain 2 of 2): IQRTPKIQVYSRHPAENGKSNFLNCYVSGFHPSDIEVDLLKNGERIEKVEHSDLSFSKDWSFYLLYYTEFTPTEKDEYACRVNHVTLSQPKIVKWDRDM
# human CD16A F158 allotype (human), sequence (P08637 17-208 limits assumed): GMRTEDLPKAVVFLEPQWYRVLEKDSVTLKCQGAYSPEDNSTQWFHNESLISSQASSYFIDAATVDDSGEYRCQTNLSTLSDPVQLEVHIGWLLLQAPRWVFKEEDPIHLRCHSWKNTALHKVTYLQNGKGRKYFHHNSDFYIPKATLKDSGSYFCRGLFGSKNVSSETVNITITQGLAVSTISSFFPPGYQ
# human CD16A ectodomain fused to mouse CD3 zeta, on BW5147 reporter cells (human; mouse), sequence (P08637 other isoform, or with tags, fused parts or gaps limits assumed): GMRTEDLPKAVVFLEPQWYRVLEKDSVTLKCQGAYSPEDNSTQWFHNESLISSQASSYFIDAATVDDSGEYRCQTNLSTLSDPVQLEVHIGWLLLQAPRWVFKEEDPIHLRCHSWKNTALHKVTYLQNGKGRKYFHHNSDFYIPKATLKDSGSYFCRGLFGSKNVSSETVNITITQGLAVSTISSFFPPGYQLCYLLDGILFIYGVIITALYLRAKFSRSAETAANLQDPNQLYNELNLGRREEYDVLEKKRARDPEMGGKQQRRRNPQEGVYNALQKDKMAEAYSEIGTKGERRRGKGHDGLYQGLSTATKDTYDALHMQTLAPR
substance,measurement,setting,value
2B1 control antibody with human IgG1 Fc and an irrelevant Fab,"internalization by AD169-infected MRC5 (pHrodo, %)",[1],20%
same,"internalization in the presence of soluble gp34-M, t-gp68, or both (%)",[1],0 to 5%
same,percent of cells bound,[2],40%
2B1 control antibody with mouse IgG2a Fc and an irrelevant Fab,percent of cells bound,[2],5%
SM5-1 (anti-gB) with mouse IgG2a Fc (antibody),percent of cells bound,[3],60%
SM5-1 (anti-gB) with wild-type human IgG1 Fc (antibody),EC50 (read off the curve),[4],200 ng/mL
same,percent of cells bound,[5],60%
same,"NK-92 V158 degranulation (CD107a, % cells), AD169/GFP-infected MRC5, 20 µg/ml",[1],5%
same,"internalization by AD169-infected MRC5 (pHrodo, %)",[1],37%
same,internalization by AD169-infected MRC5 cells (%),[1],35%
same,"internalization by AD169-infected cells (pHrodo, %)",[1],50%
same,"internalization by ΔΔΔ-infected cells (vFcγRs deleted; pHrodo, %)",[1],7%
same,"internalization in the presence of soluble gp34-M, t-gp68, or both (%)",[1],0 to 5%
same,"CD16A activation, EC50 (mIL-2 of BW-CD16A-ζ reporter cells), AD169-infected MRC5",[6],0.0128 ng/mL
same,"CD16A activation, EC50 (mIL-2 of BW-CD16A-ζ reporter cells), ΔΔΔ-infected MRC5",[6],0.00063 ng/mL
same,percent of cells bound,[7],75%
same,EC50 (read off the curve),[8],400 ng/mL
same,percent of cells stained,[9],80%
same,percent of cells stained,[10],70%
same,percent of cells stained,[11],80%
"hu4D5 antibody with G2 Fc (R255Q, H268L, E294K, Q311L, K334E)",Kd,[12],4800 nM
same,Kd,[13],1800 nM
same,Kd,[14],1000 nM
same,EC50 (read off the curve),[15],30 nM
same,Kd,[16],320 nM
same,Kd,[17],50 nM
same,EC50,[18],81 nM
same,EC50,[19],410 nM
"hu4D5 antibody with G5 Fc (R255Q, S337F)",Kd,[12],2100 nM
same,Kd,[13],850 nM
same,Kd,[14],1000 nM
same,Kd,[16],33 nM
same,Kd,[17],90 nM
same,EC50,[20],15 nM
same,EC50,[21],230 nM
same,EC50,[18],40 nM
same,EC50,[19],410 nM
hu4D5 antibody with wild-type human IgG1 Fc,Kd,[12],69 nM
same,Kd,[13],80 nM
same,Kd,[14],1000 nM
same,Kd,[16],7.3 nM
same,Kd,[17],60 nM
same,EC50,[20],20 nM
same,EC50,[21],55 nM
same,EC50,[18],74 nM
same,EC50,[19],40 nM
same,EC50,[22],12 nM
human IgG1 isotype control antibody,"internalization by AD169-infected cells (pHrodo, %)",[1],10%
same,percent of cells stained,[23],35%
